{
  "source": "patent US20230303689A1",
  "about": "(published 2023)",
  "key": {"[1]": {"molecular_target": "P3Z chimeric PD-1 receptor on HuT78/P3Z cells (human)", "sequence (chain, as listed by the source mutant limits assumed)": "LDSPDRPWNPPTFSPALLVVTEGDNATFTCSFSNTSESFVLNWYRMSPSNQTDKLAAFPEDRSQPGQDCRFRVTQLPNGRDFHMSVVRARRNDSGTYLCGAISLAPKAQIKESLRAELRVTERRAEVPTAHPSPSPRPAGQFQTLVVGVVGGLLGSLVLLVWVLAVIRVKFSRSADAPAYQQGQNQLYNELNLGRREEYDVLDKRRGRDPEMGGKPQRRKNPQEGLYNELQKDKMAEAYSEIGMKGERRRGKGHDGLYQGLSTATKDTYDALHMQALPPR", "test": "cell-based or functional assay"}, "PD-1-EC/Fc": {"molecular_target": "T1, PD-1-EC/Fc (human)", "T1 construct": "also called PD-1/Fc", "T1 sequence (Q15116 21-168)": "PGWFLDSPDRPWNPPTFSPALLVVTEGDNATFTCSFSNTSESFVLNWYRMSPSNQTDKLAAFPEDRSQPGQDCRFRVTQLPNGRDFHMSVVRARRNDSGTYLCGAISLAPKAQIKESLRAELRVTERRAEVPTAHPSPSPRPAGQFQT", "test": "SPR (BIAcore T-200), mAb captured on anti-mouse Fc chip, PD-1/Fc injected", "protocol": "Anti-mouse Fc CM5 biosensor chip (GE Healthcare) was generated using a standard primary amine coupling protocol. PD-1 mAbs at 0.3 µg/ml were captured on anti-mouse Fc surface for 1 min at 10 µl/min. […] Association rates (Kₐ or kₒₙ) and dissociation rates (Kd or koff) were calculated using the one-to-one Langmuir binding model (BIA Evaluation Software, GE Life Sciences). The equilibrium dissociation constant (KD) was calculated as the ratio koff/kₒₙ."}, "[2]": {"molecular_target": "T2, human PD-1 expressed on cells (HuT78/PD-1, NK92MI/PD-1) (human, UniProt Q15116 25-288)", "T2 sequence (Q15116 25-288)": "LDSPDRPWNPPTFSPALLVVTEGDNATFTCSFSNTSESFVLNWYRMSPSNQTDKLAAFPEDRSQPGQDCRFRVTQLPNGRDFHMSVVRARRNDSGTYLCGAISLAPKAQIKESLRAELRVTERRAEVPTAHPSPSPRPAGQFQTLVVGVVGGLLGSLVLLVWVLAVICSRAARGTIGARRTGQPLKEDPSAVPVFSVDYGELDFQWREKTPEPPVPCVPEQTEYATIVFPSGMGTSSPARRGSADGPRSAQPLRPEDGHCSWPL", "test": "cell-based or functional assay"}, "[3]": {"molecular_target": "T2, human PD-1 expressed on cells …", "test": "FACS on PD-1-expressing cells"}, "[4]": {"molecular_target": "T2, human PD-1 expressed on cells …", "test": "cell-based or functional assay", "remark": "listed apart in the source"}},
  "note": "Where two headings read alike, the source gives them in different places.",
  "data": [
    {"binder": "murine mAb 326 (antibody, V domains shown, Murine hybridoma IgG; also called mu326) VH: QIQLVQSGPELKKPGETVKISCKASGYTFTNYGMNWVKQAPGKGLKWMGWINNNNGEPTYAEEFKGRFAFSLETSASTAYLQINNLKNEDTATYFCARDVMDYWGQGTSVTVSS VL: DIVLTQSPASLAVSLGQRATISCRASESVDNYGYSFMHWYQQKPGQPPQLLIYRASNLESGIPARFSGSGSRTGFTLTINPVEADDVATYYCQQSKEYPTFGGGTKLEVK", "values": [
      {"measurement": "Inhibition of IL-2 secretion, HuT78/P3Z + HEK293/PD-L1: IC50", "setting": "[1]", "value": 0.039, "unit": "µg/mL"},
      {"measurement": "Kd", "setting": "PD-1-EC/Fc", "value": 0.324, "unit": "nM"},
      {"measurement": "koff", "setting": "PD-1-EC/Fc", "value": "7.79e-05", "unit": "s⁻¹"},
      {"measurement": "kon", "setting": "PD-1-EC/Fc", "value": 240000, "unit": "M⁻¹ s⁻¹"},
      {"measurement": "Assay-1, IL-2 release HuT78/PD-1 + HEK293/OS8/PD-L1: Baseline", "setting": "[2]", "value": 242, "unit": "pg/mL"}
    ]},
    {"binder": "ch326 (chimeric antibody from mu326, human IgG2/kappa) (antibody, V domains shown, domain: human Ig kappa C-region; not shown: human IgG2 constant region) VH: QIQLVQSGPELKKPGETVKISCKASGYTFTNYGMNWVKQAPGKGLKWMGWINNNNGEPTYAEEFKGRFAFSLETSASTAYLQINNLKNEDTATYFCARDVMDYWGQGTSVTVSS VL: DIVLTQSPASLAVSLGQRATISCRASESVDNYGYSFMHWYQQKPGQPPQLLIYRASNLESGIPARFSGSGSRTGFTLTINPVEADDVATYYCQQSKEYPTFGGGTKLEVKR", "values": [
      {"measurement": "EC50", "setting": "[3]", "value": 0.72, "unit": "µg/mL"},
      {"measurement": "Assay-1, IL-2 release HuT78/PD-1 + HEK293/OS8/PD-L1: Baseline", "setting": "[2]", "value": 250, "unit": "pg/mL"}
    ]},
    {"binder": "hu326-1 (humanized, human IgG2/kappa) (antibody, V domains shown, not shown: a dimerising Fc or GST) VH: QVQLVQSGSELKKPGASVKVSCKASGYTFTNYGMNWVRQAPGQGLEWMGWINNNNGEPTYAQGFRGRFVFSLDTSASTAYLQISSLKTEDTAVYFCARDVMDYWGQGTTVTVSS VL: DIVLTQSPASLAVSPGQRATITCRASESVDNYGYSFMHWYQQKPGQPPKLLIYRASNLESGVPARFSGSGSRTDFTLTINPVEANDTANYYCQQSKEYPTFGGGTKVEIKR", "values": [
      {"measurement": "Assay-1, IL-2 release HuT78/PD-1 + HEK293/OS8/PD-L1: Baseline", "setting": "[2]", "value": 283, "unit": "pg/mL"}
    ]},
    {"binder": "murine mAb 317 (antibody, V domains shown) VH: QVQLKESGPGLVAPSKNLSITCTVSGFSLTSYGVHWIRQPPGKGLEWLGVIWAGGSTNYNSALMSRLSISKDNSRSQVFLRMNSLQTDDTAMYYCARAYGNYWYIDVWGAGTTVTVSS VL: DIVMTQTPKFLLVSAGDRVTITCKASQSVSNDVAWYQQKPGQSPKLLINYAFHRFTGVPDRFTGSGYGTDFIFTISTVQAEDLAVYFCHQAYSSPYTFGGGTKLEMK", "values": [
      {"measurement": "Inhibition of IL-2 secretion, HuT78/P3Z + HEK293/PD-L1: IC50", "setting": "[1]", "value": 0.083, "unit": "µg/mL"},
      {"measurement": "Assay-1, IL-2 release HuT78/PD-1 + HEK293/OS8/PD-L1: Baseline", "setting": "[4]", "value": 98, "unit": "pg/mL"}
    ]},
    {"binder": "ch317 (chimeric antibody from mu317, human IgG2/kappa) (antibody, V domains shown, not shown: a dimerising Fc or GST) VH: QVQLKESGPGLVAPSKNLSITCTVSGFSLTSYGVHWIRQPPGKGLEWLGVIWAGGSTNYNSALMSRLSISKDNSRSQVFLRMNSLQTDDTAMYYCARAYGNYWYIDVWGAGTTVTVSS VL: DIVMTQTPKFLLVSAGDRVTITCKASQSVSNDVAWYQQKPGQSPKLLINYAFHRFTGVPDRFTGSGYGTDFIFTISTVQAEDLAVYFCHQAYSSPYTFGGGTKLEMKR", "values": [
      {"measurement": "Assay-1, IL-2 release HuT78/PD-1 + HEK293/OS8/PD-L1: Baseline", "setting": "[4]", "value": 82, "unit": "pg/mL"}
    ]},
    {"binder": "hu317-1 (humanized, human IgG2/kappa) (antibody, V domains shown, not shown: a dimerising Fc or GST) VH: QVQLQESGPGLVKPSETLSLTCTVSGFSLTSYGVHWIRQPPGKGLEWLGVIWAGGSTNYNPSLKSRLTISKDNSKSQVSLKMSSVTAADTAVYYCARAYGNYWYIDVWGQGTTVTVSS VL: DIVMTQSPDSLAVSLGERATINCKASQSVSNDVAWYQQKPGQPPKLLINYAFHRFTGVPDRFSGSGYGTDFTLTISSLQAEDVAVYYCHQAYSSPYTFGGGTKLEIKR", "values": [
      {"measurement": "Assay-1, IL-2 release HuT78/PD-1 + HEK293/OS8/PD-L1: Baseline", "setting": "[4]", "value": 91, "unit": "pg/mL"}
    ]}
  ]
}
